Source: patent US20260217779A1 (Chugai, published 2026)

B1: hCXCL11.0033-G1T4k.one//VHn-G1T4h.one.H435R (Fc fusion)
chain 1: QFPMFKRGRCLCIGPGVKAVKVADIEKASIMYPSNNCDKIEVIITLKENKGQRCLNPKSKQARLIIKKVERKNFEPKSSDKTHTCPPCPAPELRRGPSVFLFPPKPKDTLMISRTPEVTCVVVDVSHEDPEVKFNWYVDGVEVHNAKTKPREEQYNSTYRVVSVLTVLHQDWLNGKEYKCKVSNKGLPSSIEKTISKAKGQPREPQVCTLPPSREEMTKNQVSLWCLVKGFYPSDIAVEWESNGQPENNYKTTPPVLDSDGSFFLYSKLTVDKSRWQEGNVFSCSVMHEALHNHYTQKSLSLSP
chain 2: EPKSSDKTHTCPPCPAPELRRGPSVFLFPPKPKDTLMISRTPEVTCVVVDVSHEDPEVKFNWYVDGVEVHNAKTKPREEQYNSTYRVVSVLTVLHQDWLNGKEYKCKVSNKGLPSSIEKTISKAKGQPREPQVYTLPPSRCEMTKNQVSLSCAVKGFYPSDIAVEWESNGQPENNYKTTPPVLDSDGSFFLVSKLTVDKSRWQEGNVFSCSVMHEALHNRYTQKSLSLSP
B2: hCXCL11.0039-G1T4k.one//VHn-G1T4h.one.H435R (Fc fusion)
chain 1: YFPMFKRGRCLCIGPGVKAVKVADIEKASIMYPSNNCDKIEVIITLKENKGQRCLNPKSKQARLIIKKVERKNFEPKSSDKTHTCPPCPAPELRRGPSVFLFPPKPKDTLMISRTPEVTCVVVDVSHEDPEVKFNWYVDGVEVHNAKTKPREEQYNSTYRVVSVLTVLHQDWLNGKEYKCKVSNKGLPSSIEKTISKAKGQPREPQVCTLPPSREEMTKNQVSLWCLVKGFYPSDIAVEWESNGQPENNYKTTPPVLDSDGSFFLYSKLTVDKSRWQEGNVFSCSVMHEALHNHYTQKSLSLSP
chain 2: EPKSSDKTHTCPPCPAPELRRGPSVFLFPPKPKDTLMISRTPEVTCVVVDVSHEDPEVKFNWYVDGVEVHNAKTKPREEQYNSTYRVVSVLTVLHQDWLNGKEYKCKVSNKGLPSSIEKTISKAKGQPREPQVYTLPPSRCEMTKNQVSLSCAVKGFYPSDIAVEWESNGQPENNYKTTPPVLDSDGSFFLVSKLTVDKSRWQEGNVFSCSVMHEALHNRYTQKSLSLSP
B3: hCXCL11.0035-G1T4k.one//VHn-G1T4h.one.H435R (Fc fusion)
chain 1: SFPMFKRGRCLCIGPGVKAVKVADIEKASIMYPSNNCDKIEVIITLKENKGQRCLNPKSKQARLIIKKVERKNFEPKSSDKTHTCPPCPAPELRRGPSVFLFPPKPKDTLMISRTPEVTCVVVDVSHEDPEVKFNWYVDGVEVHNAKTKPREEQYNSTYRVVSVLTVLHQDWLNGKEYKCKVSNKGLPSSIEKTISKAKGQPREPQVCTLPPSREEMTKNQVSLWCLVKGFYPSDIAVEWESNGQPENNYKTTPPVLDSDGSFFLYSKLTVDKSRWQEGNVFSCSVMHEALHNHYTQKSLSLSP
chain 2: EPKSSDKTHTCPPCPAPELRRGPSVFLFPPKPKDTLMISRTPEVTCVVVDVSHEDPEVKFNWYVDGVEVHNAKTKPREEQYNSTYRVVSVLTVLHQDWLNGKEYKCKVSNKGLPSSIEKTISKAKGQPREPQVYTLPPSRCEMTKNQVSLSCAVKGFYPSDIAVEWESNGQPENNYKTTPPVLDSDGSFFLVSKLTVDKSRWQEGNVFSCSVMHEALHNRYTQKSLSLSP
B4: hCXCL11.0036-G1T4k.one//VHn-G1T4h.one.H435R (Fc fusion)
chain 1: TFPMFKRGRCLCIGPGVKAVKVADIEKASIMYPSNNCDKIEVIITLKENKGQRCLNPKSKQARLIIKKVERKNFEPKSSDKTHTCPPCPAPELRRGPSVFLFPPKPKDTLMISRTPEVTCVVVDVSHEDPEVKFNWYVDGVEVHNAKTKPREEQYNSTYRVVSVLTVLHQDWLNGKEYKCKVSNKGLPSSIEKTISKAKGQPREPQVCTLPPSREEMTKNQVSLWCLVKGFYPSDIAVEWESNGQPENNYKTTPPVLDSDGSFFLYSKLTVDKSRWQEGNVFSCSVMHEALHNHYTQKSLSLSP
chain 2: EPKSSDKTHTCPPCPAPELRRGPSVFLFPPKPKDTLMISRTPEVTCVVVDVSHEDPEVKFNWYVDGVEVHNAKTKPREEQYNSTYRVVSVLTVLHQDWLNGKEYKCKVSNKGLPSSIEKTISKAKGQPREPQVYTLPPSRCEMTKNQVSLSCAVKGFYPSDIAVEWESNGQPENNYKTTPPVLDSDGSFFLVSKLTVDKSRWQEGNVFSCSVMHEALHNRYTQKSLSLSP
B5: hCXCL11.0038-G1T4k.one//VHn-G1T4h.one.H435R (Fc fusion)
chain 1: WFPMFKRGRCLCIGPGVKAVKVADIEKASIMYPSNNCDKIEVIITLKENKGQRCLNPKSKQARLIIKKVERKNFEPKSSDKTHTCPPCPAPELRRGPSVFLFPPKPKDTLMISRTPEVTCVVVDVSHEDPEVKFNWYVDGVEVHNAKTKPREEQYNSTYRVVSVLTVLHQDWLNGKEYKCKVSNKGLPSSIEKTISKAKGQPREPQVCTLPPSREEMTKNQVSLWCLVKGFYPSDIAVEWESNGQPENNYKTTPPVLDSDGSFFLYSKLTVDKSRWQEGNVFSCSVMHEALHNHYTQKSLSLSP
chain 2: EPKSSDKTHTCPPCPAPELRRGPSVFLFPPKPKDTLMISRTPEVTCVVVDVSHEDPEVKFNWYVDGVEVHNAKTKPREEQYNSTYRVVSVLTVLHQDWLNGKEYKCKVSNKGLPSSIEKTISKAKGQPREPQVYTLPPSRCEMTKNQVSLSCAVKGFYPSDIAVEWESNGQPENNYKTTPPVLDSDGSFFLVSKLTVDKSRWQEGNVFSCSVMHEALHNRYTQKSLSLSP
B6: hCXCL11.0034-G1T4k.one//VHn-G1T4h.one.H435R (Fc fusion)
chain 1: RFPMFKRGRCLCIGPGVKAVKVADIEKASIMYPSNNCDKIEVIITLKENKGQRCLNPKSKQARLIIKKVERKNFEPKSSDKTHTCPPCPAPELRRGPSVFLFPPKPKDTLMISRTPEVTCVVVDVSHEDPEVKFNWYVDGVEVHNAKTKPREEQYNSTYRVVSVLTVLHQDWLNGKEYKCKVSNKGLPSSIEKTISKAKGQPREPQVCTLPPSREEMTKNQVSLWCLVKGFYPSDIAVEWESNGQPENNYKTTPPVLDSDGSFFLYSKLTVDKSRWQEGNVFSCSVMHEALHNHYTQKSLSLSP
chain 2: EPKSSDKTHTCPPCPAPELRRGPSVFLFPPKPKDTLMISRTPEVTCVVVDVSHEDPEVKFNWYVDGVEVHNAKTKPREEQYNSTYRVVSVLTVLHQDWLNGKEYKCKVSNKGLPSSIEKTISKAKGQPREPQVYTLPPSRCEMTKNQVSLSCAVKGFYPSDIAVEWESNGQPENNYKTTPPVLDSDGSFFLVSKLTVDKSRWQEGNVFSCSVMHEALHNRYTQKSLSLSP
B7: hCXCL11.0040-G1T4k.one//VHn-G1T4h.one.H435R (Fc fusion)
chain 1: FAPMFKRGRCLCIGPGVKAVKVADIEKASIMYPSNNCDKIEVIITLKENKGQRCLNPKSKQARLIIKKVERKNFEPKSSDKTHTCPPCPAPELRRGPSVFLFPPKPKDTLMISRTPEVTCVVVDVSHEDPEVKFNWYVDGVEVHNAKTKPREEQYNSTYRVVSVLTVLHQDWLNGKEYKCKVSNKGLPSSIEKTISKAKGQPREPQVCTLPPSREEMTKNQVSLWCLVKGFYPSDIAVEWESNGQPENNYKTTPPVLDSDGSFFLYSKLTVDKSRWQEGNVFSCSVMHEALHNHYTQKSLSLSP
chain 2: EPKSSDKTHTCPPCPAPELRRGPSVFLFPPKPKDTLMISRTPEVTCVVVDVSHEDPEVKFNWYVDGVEVHNAKTKPREEQYNSTYRVVSVLTVLHQDWLNGKEYKCKVSNKGLPSSIEKTISKAKGQPREPQVYTLPPSRCEMTKNQVSLSCAVKGFYPSDIAVEWESNGQPENNYKTTPPVLDSDGSFFLVSKLTVDKSRWQEGNVFSCSVMHEALHNRYTQKSLSLSP
B8: hCXCL11.0037-G1T4k.one//VHn-G1T4h.one.H435R (Fc fusion)
chain 1: VFPMFKRGRCLCIGPGVKAVKVADIEKASIMYPSNNCDKIEVIITLKENKGQRCLNPKSKQARLIIKKVERKNFEPKSSDKTHTCPPCPAPELRRGPSVFLFPPKPKDTLMISRTPEVTCVVVDVSHEDPEVKFNWYVDGVEVHNAKTKPREEQYNSTYRVVSVLTVLHQDWLNGKEYKCKVSNKGLPSSIEKTISKAKGQPREPQVCTLPPSREEMTKNQVSLWCLVKGFYPSDIAVEWESNGQPENNYKTTPPVLDSDGSFFLYSKLTVDKSRWQEGNVFSCSVMHEALHNHYTQKSLSLSP
chain 2: EPKSSDKTHTCPPCPAPELRRGPSVFLFPPKPKDTLMISRTPEVTCVVVDVSHEDPEVKFNWYVDGVEVHNAKTKPREEQYNSTYRVVSVLTVLHQDWLNGKEYKCKVSNKGLPSSIEKTISKAKGQPREPQVYTLPPSRCEMTKNQVSLSCAVKGFYPSDIAVEWESNGQPENNYKTTPPVLDSDGSFFLVSKLTVDKSRWQEGNVFSCSVMHEALHNRYTQKSLSLSP

Each binder was assayed against T1, human CXCR3 (hCXCR3) on Ba/F3 transfectant cells (human, UniProt P49682 1-368) (assay: cell-based or functional assay).
T1 sequence: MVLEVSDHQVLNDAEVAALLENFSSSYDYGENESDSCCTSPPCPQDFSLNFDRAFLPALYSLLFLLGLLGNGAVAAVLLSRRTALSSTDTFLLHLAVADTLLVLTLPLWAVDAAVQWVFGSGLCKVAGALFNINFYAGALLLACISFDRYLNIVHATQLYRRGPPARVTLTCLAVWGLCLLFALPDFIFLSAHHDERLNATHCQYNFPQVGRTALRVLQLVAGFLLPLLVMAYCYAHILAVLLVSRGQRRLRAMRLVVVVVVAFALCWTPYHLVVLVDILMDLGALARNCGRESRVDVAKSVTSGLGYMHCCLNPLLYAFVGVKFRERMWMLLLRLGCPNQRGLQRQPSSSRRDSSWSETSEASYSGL
For B1, the “Activity retention rate at 33 nM” value was 199%, the “Activity retention rate at 100 nM” value was 92% and the “Activity retention rate at 300 nM” value was 28%. For the same binder, the “Luminescence value at 33 nM” value was 1.53e+07, the “Luminescence value at 100 nM” value was 1.53e+07 and the “Luminescence value at 300 nM” value was 3.46e+06. B2 was tested, and the “Activity retention rate at 33 nM” value was 102%, the “Activity retention rate at 100 nM” value was 86% and the “Activity retention rate at 300 nM” value was 75%. The “Luminescence value at 33 nM” value was 7.86e+06, the “Luminescence value at 100 nM” value was 1.43e+07 and the “Luminescence value at 300 nM” value was 9.32e+06. B3 was tested, and the “Activity retention rate at 33 nM” value was 161%, the “Activity retention rate at 100 nM” value was 95% and the “Activity retention rate at 300 nM” value was 42%. The “Luminescence value at 33 nM” value was 1.23e+07, the “Luminescence value at 100 nM” value was 1.58e+07 and the “Luminescence value at 300 nM” value was 5.23e+06. B4 was tested, and the “Activity retention rate at 33 nM” value was 140%, the “Activity retention rate at 100 nM” value was 105% and the “Activity retention rate at 300 nM” value was 53%. The “Luminescence value at 33 nM” value was 1.07e+07, the “Luminescence value at 100 nM” value was 1.76e+07 and the “Luminescence value at 300 nM” value was 6.59e+06. B5 was tested, and the “Activity retention rate at 33 nM” value was 60%, the “Activity retention rate at 100 nM” value was 83% and the “Activity retention rate at 300 nM” value was 99%. For the same binder, the “Luminescence value at 33 nM” value was 4.63e+06, the “Luminescence value at 100 nM” value was 1.39e+07 and the “Luminescence value at 300 nM” value was 1.23e+07. For B6, the “Activity retention rate at 33 nM” value was 19%, the “Activity retention rate at 100 nM” value was 45% and the “Activity retention rate at 300 nM” value was 77%. The “Luminescence value at 33 nM” value was 1.49e+06, the “Luminescence value at 100 nM” value was 7.45e+06 and the “Luminescence value at 300 nM” value was 9.63e+06. In the case of B7, the “Activity retention rate at 33 nM” value is reported as 81%, the “Activity retention rate at 100 nM” value is reported as 78% and the “Activity retention rate at 300 nM” value is reported as 41%. For the same binder, the “Luminescence value at 33 nM” value was 6.26e+06, the “Luminescence value at 100 nM” value was 1.31e+07 and the “Luminescence value at 300 nM” value was 5.05e+06. In the case of B8, the “Activity retention rate at 33 nM” value is reported as 111%, the “Activity retention rate at 100 nM” value is reported as 111% and the “Activity retention rate at 300 nM” value is reported as 73%. The “Luminescence value at 33 nM” value was 8.51e+06, the “Luminescence value at 100 nM” value was 1.85e+07 and the “Luminescence value at 300 nM” value was 9.07e+06.
